# Laboratory results as given in patent US20160237132A1 (ALKERMES, published 2016).
# Target: IL-6 (UniProt P05231 30-212, limits assumed)
# Experiment: cell-based or functional assay
# Sequence of IL-6 (P05231 30-212 limits assumed): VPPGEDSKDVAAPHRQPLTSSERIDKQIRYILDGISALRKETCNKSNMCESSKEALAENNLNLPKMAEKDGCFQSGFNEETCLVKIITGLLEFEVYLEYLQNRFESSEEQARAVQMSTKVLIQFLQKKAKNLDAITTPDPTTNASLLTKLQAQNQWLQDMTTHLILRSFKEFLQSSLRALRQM
binder,measurement,value
RDB1542 (Fc fusion) QNQWLQDMTTHLILRSFKEFLQSSLRALRQMSGGSGGGSSERIDKQIRYILDGISALRKETCNKSNMCESSKEALAENNLNLPKMAEKDGCFQSGFNEETCLVKIITGLLEFEVYLEYLQNRFESSEEQARAVQMSTKVLIQFLQKKAKNLDAITTPDPTTNASLLTKLQASELLDPCGYISPESPVVQLHSNFTAVCVLKEKCMDYFHVNANYIVWKTNHFTIPKEQYTIINRTASSVTFTDIASLNIQLTCNILTFGQLEQNVYGITIISGGSERKCCVECPPCPAPPVAGPSVFLFPPKPKDTLMISRTPEVTCVVVDVSHEDPEVQFNWYVDGVEVHNAKTKPREEQFNSTFRVVSVLTVVHQDWLNGKEYKCKVSNKGLPAPIEKTISKTKGQPREPQVYTLPPSREEMTKNQVSLTCLVKGFYPSDISVEWESNGQPENNYKTTPPMLDSDGSFFLYSKLTVDKSRWQQGNVFSCSVMHEALHNHYTQKSLSLSPGK,"IC50, inhibition of IL-6-dependent differentiation of M1 cells (percent CD32 positive cells)",> 1000 µM
RDB1562 (Fc fusion) QNQWLQDMTTHLILRSFKEFLQSSLRALRQMSGGSGGGSSERIDKQIRYILDGISALRKETCNKSNMCESSKEALAENNLNLPKMAEKDGCFQSGFNEETCLVKIITGLLEFEVYLEYLQNRFESSEEQARAVQMSTKVLIQFLQKKAKNLDAITTPDPTTNASLLTKLQASELLDPCGYISPESPVVQLHSNFTAVCVLKEKCMDYFHVNANYIVWKTNHFTIPKEQYTIINRTASSVTFTDIASLNIQLTCNILTFGQLEQNVYGITIISGGGGGSASSESSASSDGPHPVITESRASSESSASSDGPHPVITESRSERKCCVECPPCPAPPVAGPSVFLFPPKPKDTLMISRTPEVTCVVVDVSHEDPEVQFNWYVDGVEVHNAKTKPREEQFNSTFRVVSVLTVVHQDWLNGKEYKCKVSNKGLPAPIEKTISKTKGQPREPQVYTLPPSREEMTKNQVSLTCLVKGFYPSDISVEWESNGQPENNYKTTPPMLDSDGSFFLYSKLTVDKSRWQQGNVFSCSVMHEALHNHYTQKSLSLSPGK,"IC50, inhibition of IL-6-dependent differentiation of M1 cells (percent CD32 positive cells)",0.0026 µM
same,"fold potency against RDB1542, inhibition of IL-6-dependent differentiation of M1 cells",> 400 fold
